Data: PMC8569185 (Frontiers in Pharmacology, 2021)

Tests used:
mouse KOR = mouse KOR (Mus musculus, UniProt P33534); test: cell-based; details: HEK293, read-out: Efficacy cAMP Emax ± SD
mouse κ-opioid receptor [1] = target: T1, mouse κ-opioid receptor (mouse, UniProt P33534 1-380); test: cell-based or functional assay
mouse κ-opioid receptor [2] = target: T1, mouse κ-opioid receptor; test: radioligand binding; displacement of [3H]-diprenorphine (1 nM) from HEK293 cell membranes stably expressing mouse KOR (6.3–7.6 µg/assay) by peptides (0.1 nM–30 µM); 50 mM Tris-HCl pH 7.4, 10 mM MgCl2, 0.1% BSA; 1.5 h at 37°C; filtration; Ki from IC50 by Cheng and Prusoff; details: one partner purified
mouse KOR-EGFP = mouse KOR-EGFP (mouse, UniProt P33534 1-380); test: cell-based or functional assay
mouse KOR-EGFP, sequence (P33534 whole entry): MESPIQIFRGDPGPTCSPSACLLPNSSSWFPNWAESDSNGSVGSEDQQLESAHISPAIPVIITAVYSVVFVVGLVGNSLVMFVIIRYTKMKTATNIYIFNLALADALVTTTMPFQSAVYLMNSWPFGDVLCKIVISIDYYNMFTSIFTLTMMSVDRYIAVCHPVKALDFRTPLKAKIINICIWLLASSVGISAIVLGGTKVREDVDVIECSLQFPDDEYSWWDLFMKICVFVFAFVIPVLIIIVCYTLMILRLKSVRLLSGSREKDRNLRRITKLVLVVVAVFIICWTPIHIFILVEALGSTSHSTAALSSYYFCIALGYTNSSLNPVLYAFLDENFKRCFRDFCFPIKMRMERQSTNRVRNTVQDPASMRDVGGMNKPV

T1 sequence (P33534 whole entry): as above
mouse KOR, sequence (P33534 whole entry): as above

Question: How did the Emax at 10 µM (mouse KOR) turn out when H-YGGFMRRVGRPEW-OH [blenniorphin 1–13] was run?
Answer: 98.5 ± 9.1%

Question: For “H-YGGFMRRVGRPEWLVDS-OH [blenniorphin 1–17]”, which Emax at 10 µM (mouse KOR) is on record?
Answer: 97.5 ± 11%

Question: Which Emax at 10 µM (mouse KOR) does the source give for `CSCC[C@H](NC(=O)[C@H](Cc1ccccc1)NC(=O)CNC(=O)CNC(=O)[C@@H](N)Cc1ccc(O)cc1)C(=O)N[C@@H](CCCNC(=N)N)C(=O)N[C@@H](CCCNC(=N)N)C(=O)N[C@H](C(=O)O)C(C)C` [blenniorphin 1–8] here?
Answer: 82.4 ± 9.8%

B1: blenniorphin 1–8 (peptide)
peptide: YGGFMRRV
notes: numbers count on: the dyn A 1–17-like peptide, not the precursor; Free N-terminus and free C-terminal carboxyl as printed (NH2-...-COOH); source: synthetic peptide (Boc-based SPPS, RP-HPLC purified)
Question: How did the “EC50 of inhibition of forskolin-stimulated cAMP accumulation (HTRF cAMP-Gi kit), HEK293 cells stably expressing mouse KOR” value (mouse κ-opioid receptor [1]) turn out when B1 was run?
Answer: 3.6 nM

Question: What about the “Emax of cAMP inhibition, normalised to 10 µM dyn A 1–13 (100%), HEK293 cells stably expressing mouse KOR” value (mouse κ-opioid receptor [1]) of the same molecule?
Answer: 82.4%

Question: And the Ki (mouse κ-opioid receptor [2])?
Answer: 3.3 nM

Question: What about the “extent of β-arrestin-2-Nluc recruitment to KOR-EGFP (BRET) at 10 µM peptide, relative to 10 µM dyn A 1–13 (100%)” value (mouse KOR-EGFP) of the same molecule?
Answer: ~30 % lower than dyn A 1–13

B2: blenniorphin 1–13 (peptide)
peptide: YGGFMRRVGRPEW
notes: numbers count on: the dyn A 1–17-like peptide, not the precursor; Free N-terminus and free C-terminal carboxyl as printed (NH2-...-COOH); also called blenniorphin-13; source: synthetic peptide (Boc-based SPPS, RP-HPLC purified)
Question: What does the source list for B2?
Answer: EC50 of inhibition of forskolin-stimulated cAMP accumulation (HTRF cAMP-Gi kit), HEK293 cells stably expressing mouse KOR (mouse κ-opioid receptor [1]): 5 nM; Emax of cAMP inhibition, normalised to 10 µM dyn A 1–13 (100%), HEK293 cells stably expressing mouse KOR (mouse κ-opioid receptor [1]): 98.5%; Ki (mouse κ-opioid receptor [2]): 116 nM; extent of β-arrestin-2-Nluc recruitment to KOR-EGFP (BRET) at 10 µM peptide, relative to 10 µM dyn A 1–13 (100%) (mouse KOR-EGFP): ~30 % lower than dyn A 1–13

B3: blenniorphin 1–17 (peptide)
peptide: YGGFMRRVGRPEWLVDS
notes: numbers count on: the dyn A 1–17-like peptide, not the precursor; Free N-terminus and free C-terminal carboxyl as printed (NH2-...-COOH); also called blenniorphin-17; source: synthetic peptide (Fmoc-based SPPS, RP-HPLC purified)
Question: How did the “EC50 of inhibition of forskolin-stimulated cAMP accumulation (HTRF cAMP-Gi kit), HEK293 cells stably expressing mouse KOR” value (mouse κ-opioid receptor [1]) turn out when B3 was run?
Answer: 15.2 nM

Question: And the “Emax of cAMP inhibition, normalised to 10 µM dyn A 1–13 (100%), HEK293 cells stably expressing mouse KOR” value (mouse κ-opioid receptor [1])?
Answer: 97.5%

Question: What about the Ki (mouse κ-opioid receptor [2]) of the same molecule?
Answer: 85.8 nM

Question: What about the “extent of β-arrestin-2-Nluc recruitment to KOR-EGFP (BRET) at 10 µM peptide, relative to 10 µM dyn A 1–13 (100%)” value (mouse KOR-EGFP) of the same molecule?
Answer: ~30 % lower than dyn A 1–13
